Values belong to the binder of their own block, whether it stands above or below them.
What was measured:
ENAH EVH1 = ENAH EVH1 (Homo sapiens, UniProt Q8N8S7); assay: BLI
Homer1 EVH1 = target: T1, Homer1 EVH1 (Homo sapiens, UniProt Q86YM7); assay: BLI
T1 chain: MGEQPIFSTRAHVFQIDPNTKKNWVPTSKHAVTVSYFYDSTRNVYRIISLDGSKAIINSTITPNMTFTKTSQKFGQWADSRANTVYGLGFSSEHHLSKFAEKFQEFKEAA

ENAH EVH1, sequence (Q8N8S7 1-111): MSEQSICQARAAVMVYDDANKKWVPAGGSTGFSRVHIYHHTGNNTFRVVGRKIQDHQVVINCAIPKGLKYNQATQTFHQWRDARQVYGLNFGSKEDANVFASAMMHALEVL

Kd (ENAH EVH1): > 150 µM
B1: DVL1 (peptide)
chain: GYPYQYPGPPPCFPPAYQDP

Kd (ENAH EVH1): > 150 µM
B2: SH3BGRL (peptide)
chain: RPATGYPLPPQIFNESQYRG

Kd (ENAH EVH1): > 150 µM
B3: KANK4 (peptide)
chain: PNHLPLPGPPFSFQNVLVVL

More lines, now with the values behind:

B4: FLNC (peptide)
chain: FIAHILPAPPDCFPDKVKAF
Kd (ENAH EVH1): > 150 µM

B5: DVL3P1A (peptide)
chain: ALPHPGAAPWPMAFPYQYPPPAHPYNPHPGFPELGY
Kd (Homer1 EVH1): > 150 µM

Source: PMC11237882 (2024)
